From the nanobody polyreactivity screen of Harvey et al. (2022)

Experiment: yeast display, Sf9 membrane polyspecificity reagent, FACS + sequencing; frameworks hold sequencing errors
Outline: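 Nanobodies came from a synthetic yeast display library in Saccharomyces cerevisiae BJ5465, induced with galactose for 36–48 hours and stained for 1 hour at 4 °C with 10% biotinylated, detergent-solubilized Sf9 membrane reagent. Cells were enriched on streptavidin microbeads and then FACS-sorted, with low and high (top ~1%) gates set on anti-HA fluorescence for expression and streptavidin fluorescence for reagent binding. Each polyreactivity label reflects the gate a clone came from. Genes were amplified by colony PCR, sequenced by MiSeq 2 × 250 and filtered by CDR length.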

Row | Sequence | polyreactivity (PSR sort gate)
1 | QVQLEESGGGLVQAGGSLRLSCAASGRTFVFNAMGWYRQAPGTERELVASINSRVGSTYYADSVKGRFTISRDNAKNTVYLQMNSLKPEDTAVYYCAARSYSSYYYWGQGTQVTVSS | high polyreactivity
2 | QVQLEESGGGLVQAGGSLRLSCAASGRTSRSYTMGWYRQAPGKERELVAAITRGGRTYYADSVKGRFTISRDNANNTVYLQMNSLKPEDTAVYYCDTVRVQSYGYWGQGTQVTVSS | low polyreactivity
3 | QVQLEESGGGLVQAGGSLRLSCAASGSIFAPYVMGWYRQATGKERELVAAITESGGRTYYADSVKGRFTISRDNAKNTVYLQMNSLKPEDTAVYYCAARTYDRNRQLRRQWYDYWGQGTQVTVSS | high polyreactivity
4 | QVQLEESGGGLVQAGGSLRLSCAASGSIFFGNDMGWYSQAPGKERELVAGISNGGRTNYADSVKGRFTISRDNAKNHVYLLMHSLKPEDTAVYYCAKHPVYIYWSRVLVGYSSWGQGTQGTVSS | low polyreactivity
5 | QVQLEESGGGLVQAGGSLRLSCAASGSIFGYNHMGWYRQAPGKERELVATITWGGGRTRYADSVKGRFTISRVNAKNTVYLQMNSLKPEDTAVYYCAADKRSYSYVRPPRNHEDYWGQGTQVTVSS | low polyreactivity
6 | QVQLEESGGGLVQAGGSLRLSCAASGSIFKFYAMGWYRQAPGKEREFVAAIRQSGGRTYYADSVKGRFTISRDNAKNTVYLPMNSLKPEDTAVYYCAADGYYWEYYYWGQGTQVTVSS | high polyreactivity
7 | QVQLEESGGGLVQAGGSLRLSCAASGSIFLNYGMGWYRQAPGKERELVAGISNGGSTNYADSVKGRFTISRDNAKNTVYLQMNSLKPEDTAVYYCARPAYKSRGKRFDYWGQGTQVTVSS | low polyreactivity
8 | QVQLEESGGGLVQAGGSLRLSCAASGSIFPWYAMGWYRQAPGKERELVAVITSGGSTNYADSVKGRFTISRANAKNTVYLQMNSLYPEDTAVYYCYADAPLDDFSPRFEVSTEHSWGQGTQVTVSS | low polyreactivity
9 | QVQLEESGGGLVQAGGSLRLSCAASGSIFQTYAMGWSRQAPGKERQLVAAITSGGGSTYYADSVKGRFTISRDNAKNTVYLQMNSLKREDTAVYYCAAGSRFVSSRLYYWGQGTQVTVSS | high polyreactivity
10 | QVQLEESGGGLVQAGGSLRLSCAASGSIFRSYAMGWYRQAPGKEREFVAAINSRSGSTYYADSVKGRFTISRDNAKNTVYLQMNSLKPEDTAVYYCAAKFAQPDYRYDYWGQGTQVTVSS | high polyreactivity
11 | QVQLEESGGGLVQAGGSLRLSCAASGSIFSAYFMVWYRQAPGKERELVAAINRGGNTYYADSVKGRFTISRDNANITVYLQMNSLKPEDTAVYYCNAQWYYLRYRYDYWGQGTQVTVSS | high polyreactivity
12 | QVQLEESGGGLVQAGGSLRLSCAASGSIFSIYAMGWYRQAPGKERELVASITRSSGRTYYADSVKGRFTISRDNAKNTVYLQMNSLKPEDTAVYYCAKDYIPLALDADDYWGQGTQVTVSS | low polyreactivity
13 | QVQLEESGGGLVQAGGSLRLSCAASGSIFVGYALGWYIQAPGKERELVASITTRGGSTHYADYVKGRFTISRDNAKNTVYLQMNSLKPEDTAVYYCAADSLSNGVLQYLPGYDYWGQGTQVTVSS | low polyreactivity
14 | QVQLEESGGGLVQAGGSLRLSCAASGSIFYDNVMGWSRQAPGKERELVAGITRGGSTNYADSVKGPFTISRDNAKNTVYLQMNSLKPEDTAVSYCAADGTYVWGSEEGNYWGQGTQVNVSS | low polyreactivity
15 | QVQLEESGGGLVQAGGSLRLSCAASGSIFYEYAMGLYRTAPGKERVFVAAISSRGGYTNYADSVKGRFTISRDNAKNTVYLQMNSLKPEDTAVYYWAGYGGLQSRYYYWGLGTQVTVSS | high polyreactivity
16 | QVQLEESGGGLVQAGGSLRLSCAASGSIFYQYDMGWYRQAPGKERELVAAITQRGGRTYYADSVKGRFTISRDNAKNTVDLKMNSLKPELTAVYYCAADNDSYWGYVYWGQGTQVTVSS | high polyreactivity
17 | QVQLEESGGGLVQAGGSLRLSCAASGSIIGPNAMGWYRQAPGKDRELVAAITSGSSTKYADSVKGRFTISRDNAMNTVYLQMNSLKPEDTAVDYCAASGTTTWKYGFWGQGTQVTVSS | low polyreactivity
18 | QVQLEESGGGLVQAGGSLRLSCAASGSILDLNAMGWSRQATGKERELVAAISYSGDSTYYADSVKGRFTISRDNAKNTVYLQMNSQKPEDTAVYYCAAEVYGAVYDYWGQGTQVTVSS | low polyreactivity
19 | QVQLEESGGGLVQAGGSLRLSCAASGSIYYLNAMGWYRQAPGKERELVAAINSGGTTNYADSVKGRFTISRDNAKYTVYLQMNSLKPEDTAVYYCATDGYYYYYRVYKFDYWGQGTQVTVSS | low polyreactivity
20 | QVQLEESGGGLVQAGGSLRLSCAASGSTCPTNAIGWYRQAPRKERELVADITIRRGGTSYADSVKGRFTMSRDNAKNTVYLQMNSLKPEDTAVYYCARSKSTELKRLLYDSWGQGTQVTVSS | low polyreactivity

Row | Sequence | polyreactivity (PSR sort gate)
21 | QVQLEESGGGLVQAGGSLRLSCAASGSTFDFNAMGWYRQVPGKERELVAAITSGGSTNYADSVKGRFTISRDNAKNTVYLQMNSLKPEDTAVYYCAARPARGDSQGGYVRPWCYDSWGQGTQVTGSS | low polyreactivity
22 | QVQLEESGGGLVQAGGSLRLSCAASGSTFGFYAMRWYRQAPGKERDLVAAISSAARTYYADSVKGRFTISRDNAKNTVYLQMNSLKPADTAVYYCSAEAYHWTSYIGYGGVYYWGQGTQVTGSS | low polyreactivity
23 | QVQLEESGGGLVQAGGSLRLSCAASGSTFVVYAMGWYRQAPGKERELVAAISGRGGRTYYADSVKGRFTISRDNAKNTVYLQMISLKPEDTAVYYCSTRYNNLYTIRVGEYDSWGQGTQVTVSS | high polyreactivity
24 | QVQLEESGGGLVQAGGSLRLSCAASGSTFVYNALGWNRQAPGKEREFVAVINWSGGRTYADSVKGRFTISRDNAKTTVYLQMNSLNPDETEVYYCNAERRSYRFALQYRRYDYWGEGTQVTVSS | high polyreactivity
25 | QVQLEESGGGLVQAGGSLRLSCAASGSTFWFNAMGWYRQAPGKERELVAVITWSGDGTYYADSVKGRFTISRDNANYTVYLQRNSLKPEDTAVYYCAKGFERYPWYDYWGQGTQVTVSS | low polyreactivity
26 | QVQLEESGGGLVQAGGSLRLSCAASGSTFYEYAMGWYRQAPGKERELVAAITTVGSTNYADSLKGRFTISRDNAKNTVYLQMNSLKPEDTAVYYCNKRPVILYDYWGLGTQVTVSS | low polyreactivity
27 | QVQLEESGGGLVQAGGSLRLSCAASGSTFYIYAMGSYRQAPGKERELVARMSGSGGSTYYADSVKGRFTISRDNAKNTVYLQMNSVKPEDTAVYYCAADDIYKYYQYYAFPYYRYDYWGQGTQVTVSS | low polyreactivity
28 | QVQLEESGGGLVQAGGSLRLSCAASGSTFYPYAMGWYIQAPGTERELVAAISSRDGRTYYADSVKGRFTISRDNAKNTVYLQMNSLTPEDTAVYYCAASSFNNGHRYDYWGQGTQVTVSS | high polyreactivity
29 | QVQLEESGGGLVQAGGSLRLSCAASGSTNVKYAMGWYRQAPGKERELVAAITYSGDSTYYADSLKGRFTSSRDNAKNTVYLQINSLKPEDTAVYYWAAELVVRYMVSDYELEYWGQGTQVTVSS | low polyreactivity
30 | QVQLEESGGGLVQAGGSLRLSCAASGSTYPSNAMGWYRQATGKERELVATITTGGSTYYADSVKGRFTISRDNAKNTVYLQMNSLKPEDTAVYYCNAEYVYLIFSVYLYDYDYWGLGTQVTVSS | low polyreactivity
31 | QVQLEESGGGLVQAGGSLRLSCAASGYILNDYTKGWYRQAPGKERELVAAITSSGDRTYYADSVKGRFTISRDNAKNTVYLQMNSLNPEDTAVYYCAADIYLGDYYYWGLGTQVTVSS | low polyreactivity
32 | QVQLEESGGGLVQAGGSLRLSCAASGYTFSHYAIGWYRQAPGKERELVAGITWSGGSTYYADSVKGRFTISRDYAKNTVYLQMNSLKPEDTSVYYCAAKYYWYYSYSGIPLFDYWGQGTQVTVSS | low polyreactivity
33 | QVQLEESGGGLVQAGGSLRLSCAASGYTFYLYAMAWYRQSPGKERELVAAISTNGGRTYYADSVKGRFTISRDNAKNTVYLQMNSLKPEDTAVYYCAVRSRGTAPQYYYWGQGTQVTVSS | high polyreactivity
34 | QVQLEESGGGLVQAGGSLRLSCAASGYTFYRYTMGWYRQAPGKERELVAAISSRGGSKYYADSVKGRFTISRDNAKNTVYLQMNSLKPEDTAVYFCARKYPRKTLSKGFDYWGQGTQVTVSS | high polyreactivity
35 | QVQLEESGGGLVQAGGSLRLSCADSGRTFRFYTIGWYRQAPGKERELVASISWGGTSTYYADSVKGRFTISRDNANNTVYLQMISLKPEDTAVYSCAAPRWVEGFRFDYWGQGTQVTVSS | high polyreactivity
36 | QVQLEESGGGLVQAGGSLRLSCAGSGRIFIHYTMGWYRQAPGKERELVAAISTSGGSTYYADSVKGRFTISRDTAKNTVYLQMKSLKPEDTAGYYCAPVYRGYSGEGYYWGQGSQVTVSS | high polyreactivity
37 | QVQLEESGGGLVQAGGSLRLSCDASGFTFAYYAMGWYRPAPGKEREFVAAITKGGGSTNYADSVKGRFTISRDNAKNTVYLQMNSLKPEDTAVYYCNADYFVWYIGRVFSRYGYWGLGTQVTVSS | low polyreactivity
38 | QVQLEESGGGLVQAGGSLRLSCPASGRTFHGYAMGSYRQAPGKERELVAAITGTGGRTYYADSVKGRFTISRDNAKNTVYLQMNSLKPEDTAVYYCAARPWIKSGYWGQGTQVTVSS | high polyreactivity
39 | QVQLEESGGGLVQAGGSLRLSCVASGSTFRFYAMGWYRPAPGNERQLVAAITWRGTSTYYADSVKGRFTISRDNAKNSVYLQMNSLKPEDTAVYYCNAAGYWPATGDYWGQGTQVTVSS | high polyreactivity
40 | QVQLEESGGGLVQAGGSLRLSFAAYGRTFGTNPMGWYRQATGKERELVAAITKSSSRTYYADSVKGRFTISRDNAKNTVYLQMNSLKPEDTAVYYCAARYYAVGGYDYWGQGTQVTVSS | high polyreactivity
